From PMC8298264, “Function of cofactor Akirin2 in the regulation of gene expression in model human neutrophil-like HL60 cells” (Bioscience Reports, 2021)

B1: sp¦Q9Y244¦POMP_HUMAN (protein, UniProt Q9Y244 1-141, looked up)
Proteasome maturation protein: MNARGLGSELKDSIPVTELSASGPFESHDLLRKGFSCVKNELLPSHPLELSEKNFQLNQDKMNFSTLRNIQGLFAPLKLQMEFKAVQQVQRLPFLSSSNLSLDVLRGNDETIGFEDILNDPSQSEVMGEPHLMVEYKLGLL
B2: sp¦P60981¦DEST_HUMAN (protein, UniProt P60981 2-165, looked up)
Destrin: ASGVQVADEVCRIFYDMKVRKCSTPEEIKKRKKAVIFCLSADKKCIIVEEGKEILVGDVGVTITDPFKHFVGMLPEKDCRYALYDASFETKESRKEELMFFLWAPELAPLKSKMIYASSKDAIKKKFQGIKHECQANGPEDLNRACIAEKLGGSLIVAFEGCPV
B3: sp¦P11279¦LAMP1_HUMAN (protein, UniProt P11279 29-417, looked up)
Lysosome-associated membrane …: AMFMVKNGNGTACIMANFSAAFSVNYDTKSGPKNMTFDLPSDATVVLNRSSCGKENTSDPSLVIAFGRGHTLTLNFTRNATRYSVQLMSFVYNLSDTHLFPNASSKEIKTVESITDIRADIDKKYRCVSGTQVHMNNVTVTLHDATIQAYLSNSSFSRGETRCEQDRPSPTTAPPAPPSPSPSPVPKSPSVDKYNVSGTNGTCLLASMGLQLNLTYERKDNTTVTRLLNINPNKTSASGSCGAHLVTLELHSEGTTVLLFQFGMNASSSRFFLQGIQLNTILPDARDPAFKAANGSLRALQATVGNSYKCNAEEHVRVTKAFSVNIFKVWVQAFKVEGGQFGSVEECLLDENSMLIPIAVGGALAGLVLIVLIAYLVGRKRSHAGYQTI
B4: sp¦Q16543¦CDC37_HUMAN (protein, UniProt Q16543 1-378, looked up)
Hsp90 co-chaperone Cdc37: MVDYSVWDHIEVSDDEDETHPNIDTASLFRWRHQARVERMEQFQKEKEELDRGCRECKRKVAECQRKLKELEVAEGGKAELERLQAEAQQLRKEERSWEQKLEEMRKKEKSMPWNVDTLSKDGFSKSMVNTKPEKTEEDSEEVREQKHKTFVEKYEKQIKHFGMLRRWDDSQKYLSDNVHLVCEETANYLVIWCIDLEVEEKCALMEQVAHQTIVMQFILELAKSLKVDPRACFRQFFTKIKTADRQYMEGFNDELEAFKERVRGRAKLRIEKAMKEYEEEERKKRLGPGGLDPVEVYESLPEELQKCFDVKDVQMLQDAISKMDPTDAKYHMQRCIDSGLWVPNSKASEAKEGEEAGPGDPLLEAVPKTGDEKDVSV
B5: sp¦O00154¦BACH_HUMAN (protein, UniProt O00154 1-380, looked up)
Cytosolic acyl coenzyme A …: MKLLARALRLCEFGRQASSRRLVAGQGCVGPRRGCCAPVQVVGPRADLPPCGACITGRIMRPDDANVAGNVHGGTILKMIEEAGAIISTRHCNSQNGERCVAALARVERTDFLSPMCIGEVAHVSAEITYTSKHSVEVQVNVMSENILTGAKKLTNKATLWYVPLSLKNVDKVLEVPPVVYSRQEQEEEGRKRYEAQKLERMETKWRNGDIVQPVLNPEPNTVSYSQSSLIHLVGPSDCTLHGFVHGGVTMKLMDEVAGIVAARHCKTNIVTASVDAINFHDKIRKGCVITISGRMTFTSNKSMEIEVLVDADPVVDSSQKRYRAASAFFTYVSLSQEGRSLPVPQLVPETEDEKKRFEEGKGRYLQMKAKRQGHAEPQP
B6: sp¦P27348¦1433T_HUMAN (protein, UniProt P27348 1-245, looked up)
14-3-3 protein theta: MEKTELIQKAKLAEQAERYDDMATCMKAVTEQGAELSNEERNLLSVAYKNVVGGRRSAWRVISSIEQKTDTSDKKLQLIKDYREKVESELRSICTTVLELLDKYLIANATNPESKVFYLKMKGDYFRYLAEVACGDDRKQTIDNSQGAYQEAFDISKKEMQPTHPIRLGLALNFSVFYYEILNNPELACTLAKTAFDEAIAELDTLNEDSYKDSTLIMQLLRDNLTLWTSDSAGEECDAAEGAEN
B7: sp¦O14737¦PDCD5_HUMAN (protein, UniProt O14737 2-125, looked up)
Programmed cell death protein …: ADEELEALRRQRLAELQAKHGDPGDAAQQEAKHREAEMRNSILAQVLDQSARARLSNLALVKPEKTKAVENYLIQMARYGQLSEKVSEQGLIEILKKVSQQTEKTTTVKFNRRKVMDSDEDDDY
B8: Inter-alpha-trypsin inhibitor heavy chain H2 (protein, UniProt P19823 55-702, looked up)
Inter-alpha-trypsin inhibitor …: SLPGESEEMMEEVDQVTLYSYKVQSTITSRMATTMIQSKVVNNSPQPQNVVFDVQIPKGAFISNFSMTVDGKTFRSSIKEKTVGRALYAQARAKGKTAGLVRSSALDMENFRTEVNVLPGAKVQFELHYQEVKWRKLGSYEHRIYLQPGRLAKHLEVDVWVIEPQGLRFLHVPDTFEGHFDGVPVISKGQQKAHVSFKPTVAQQRICPNCRETAVDGELVVLYDVKREEKAGELEVFNGYFVHFFAPDNLDPIPKNILFVIDVSGSMWGVKMKQTVEAMKTILDDLRAEDHFSVIDFNQNIRTWRNDLISATKTQVADAKRYIEKIQPSGGTNINEALLRAIFILNEANNLGLLDPNSVSLIILVSDGDPTVGELKLSKIQKNVKENIQDNISLFSLGMGFDVDYDFLKRLSNENHGIAQRIYGNQDTSSQLKKFYNQVSTPLLRNVQFNYPHTSVTDVTQNNFHNYFGGSEIVVAGKFDPAKLDQIESVITATSANTQLVLETLAQMDDLQDFLSKDKHADPDFTRKLWAYLTINQLLAERSLAPTAAAKRRITRSILQMSLDHHIVTPLTSLVIENEAGDERMLADAPPQDPSCCSGALYYGSKVVPDSTPSWANPSPTPVISMLAQGSQVLESTPPPHVMRVEND
B9: Myristoylated alanine-rich C-kinase substrate (protein, UniProt P29966 2-332, looked up)
Myristoylated alanine-rich …: GAQFSKTAAKGEAAAERPGEAAVASSPSKANGQENGHVKVNGDASPAAAESGAKEELQANGSAPAADKEEPAAAGSGAASPSAAEKGEPAAAAAPEAGASPVEKEAPAEGEAAEPGSPTAAEGEAASAASSTSSPKAEDGATPSPSNETPKKKKKRFSFKKSFKLSGFSFKKNKKEAGEGGEAEAPAAEGGKDEAAGGAAAAAAEAGAASGEQAAAPGEEAAAGEEGAAGGDPQEAKPQEAAVAPEKPPASDETKAAEEPSKVEEKKAEEAGASAAACEAPSAAGPGAPPEQEAAPAEEPAAAAASSACAAPSQEAQPECSPEAPPAEAAE
B10: Pre-rRNA-processing protein TSR1 homolog (protein, UniProt Q2NL82 1-804, looked up)
Pre-rRNA-processing protein …: MAAHRPGPLKQQNKAHKGGRHRGRGSAQRDGKGRLALKTLSKKVRKELSRVDQRHRASQLRKQKKEAVLAEKRQLGGKDGPPHQVLVVPLHSRISLPEAMQLLQDRDTGTVHLNELGNTQNFMLLCPRLKHRWFFTSARPGDLHVVLDMAKVADTILFLLDPLEGWDSTGDYCLSCLFAQGLPTYTLAVQGISGLPLKKQIDTRKKLSKAVEKRFPHDKLLLLDTQQEAGMLLRQLANQKQQHLAFRDRRAYLFAHAVDFVPSEENNLVGTLKISGYVRGQTLNVNRLLHIVGYGDFQMKQIDAPGDPFPLNPRGIKPQKDPDMAMEICATDAVDDMEEGLKVLMKADPGRQESLQAEVIPDPMEGEQTWPTEEELSEAKDFLKESSKVVKKVPKGTSSYQAEWILDGGSQSGGEGDEYEYDDMEHEDFMEEESQDESSEEEEEYETMTIGESVHDDLYDKKVDEEAEAKMLEKYKQERLEEMFPDEVDTPRDVAARIRFQKYRGLKSFRTSPWDPKENLPQDYARIFQFQNFTNTRKSIFKEVEEKEVEGAEVGWYVTLHVSEVPVSVVECFRQGTPLIAFSLLPHEQKMSVLNMVVRRDPGNTEPVKAKEELIFHCGFRRFRASPLFSQHTAADKHKLQRFLTADMALVATVYAPITFPPASVLLFKQKSNGMHSLIATGHLMSVDPDRMVIKRVVLSGHPFKIFTKMAVVRYMFFNREDVLWFKPVELRTKWGRRGHIKEPLGTHGHMKCSFDGKLKSQDTVLMNLYKRVFPKWTYDPYVPEPVPWLKSEISSTVPQGGME

What follows are molecules tested on human HL60 cells (assay: SWATH-MS proteomics, differential protein representation, akirin2 KO vs WT HL60 cells). Conditions: Over-represented in KO; KO vs WT HL60 cells.
Assay type: cell-based
Procedure: Total proteins were extracted from WT and akirin2 KO HL60 cells using the AllPrep DNA/RNA/Protein Mini Kit (Qiagen) and protein concentration was determined using the BCA Protein Assay with BSA (Sigma–Aldrich) as standard. Protein extracts (150 µg per sample, n=3 biological replicates) from each WT and KO cells were trypsin digested using the FASP Protein Digestion Kit (Expedeon Ltd., Abcam, Cambridge, U.K.) and sequencing grade trypsin (Promega, Madison, WI, U.S.A.) following manufacturer’s recommendations. The resulting peptides were finally desalted on to OMIX Pipette tips C18 (Agilent Technologies, Santa Clara, CA, U.S.A.), dried down and stored at −20 °C until mass spectrometry analysis. […] Three micrograms of each protein digest from the three biological replicates of WT and akirin2 KO HL60 cells were used for the generation of the reference spectral ion library as part of the SWATH-MS analysis.
Peptides were eluted in a 120-min gradient from 5 to 30% solvent B in solvent A followed by 15-min gradient from 30 to 60% solvent B in solvent A (solvent A: 0.1% formic acid in water, solvent B: 0.1% formic acid in acetonitrile) and directly injected into the mass spectrometer for analysis. For IDA experiments, the mass spectrometer was set to scanning full spectra (350–1400 m/z) using 250 ms accumulation time per spectrum, followed by up to 50 MS/MS scans (100–1500 m/z). Candidate ions with a charge state between +2 and +5 counts per second above a minimum threshold of 100 were isolated for fragmentation. One MS/MS spectrum was collected for 100 ms, before adding those precursor ions to the exclusion list for 15 s (mass spectrometer operated by Analyst TF 1.6, AB Sciex). Dynamic background subtraction was turned off. MS/MS analyses were recorded in high-sensitivity mode with rolling collision energy on and a collision energy spread of 5. For SWATH quantitative analysis, six independent samples (three replicates from WT and akirin2 KO HL60 cells, 5 µg each) were subjected to the cyclic DIA of mass spectra using the SWATH variable windows calculator (V 1.0, AB Sciex) and the SWATH acquisition method editor (AB Sciex), similar to established methods. […] For these experiments, a 50-ms survey scan (350–1400 m/z) was acquired at the beginning of each cycle, and SWATH–MS/MS spectra were collected from 100–1500 m/z for 70 ms at high-sensitivity mode, resulting in a cycle time of 3.6 s. Collision energy for each window was determined according to the calculation for a charge +2 ion-centered upon the window with a collision energy spread of 15. To create a spectral library of all the detectable peptides in the samples, the IDA MS raw files were combined and subjected to database search in unison using ProteinPilot software v. 5.0.1 (AB Sciex) with the Paragon algorithm. […] The detected protein threshold was set at 0.05. An independent false discovery rate (FDR) analysis, using the target–decoy approach provided by Protein Pilot (AB Sciex; https://sciex.com/products/software/proteinpilot-software), was used to assess the quality of identifications. Positive identifications were considered when identified proteins reached 1% of global FDR. […] Global normalization was performed according to the Total Area Sums (TAS) of all detected proteins in the samples. […] Heatmaps were prepared using the Heatmapper (http://www.heatmapper.ca/expression/) with average linkage and Euclidean distance measurement method.
In the case of B1, the “Fold Change” value is reported as 1.341 and the “Log (Fold Change)” value is reported as 0.1275. With B2 the “Fold Change” value was 1.321 and the “Log (Fold Change)” value was 0.1208. With B3 the “Fold Change” value was 1.301 and the “Log (Fold Change)” value was 0.1143. With B4 the “Fold Change” value was 1.314 and the “Log (Fold Change)” value was 0.1187. B5 was tested, and the “Fold Change” value was 1.305 and the “Log (Fold Change)” value was 0.1157. With B6 the “Fold Change” value was 1.296 and the “Log (Fold Change)” value was 0.1126. With B7 the “Fold Change” value was 1.307 and the “Log (Fold Change)” value was 0.1162.

Same assay, conditions: SWATH-MS, akirin2 KO vs WT HL60 cells; over-represented in KO
With B8 the “Fold Change” value was 3.859 and the “Log (Fold Change)” value was 0.5865. In the case of B9, the “Fold Change” value is reported as 3.833 and the “Log (Fold Change)” value is reported as 0.5836. B10 was tested, and the “Fold Change” value was 3.379 and the “Log (Fold Change)” value was 0.5288.
